Test results from patent US20260306683 (published 2026).
Where two headings read alike, the source gives them in different places.

B1: Degly-natZr-DFO-AP-101 (antibody, V domains shown)
VH: QVQLVQSGAEVKKPGASVTLSCKASGYTFTAYYIHWVRQAREQGLEWMGVINPSTGTTFYAQNFPDRVSVTRDTSTSTVFMELHNLKSEDTAVYYCARAISEHGSGSYSPYYWGQGTLVTVSS
VL: SYELTQPPSVSVSLGQMAAITCSGEALPKKYGYWYQQKPGQVPVLLIYRDVERPSGVPDRFSGSSSGTMVTLTISGVQAEDEADYYCLSADSSGTWVFGGGTKLTVLG
modifications: EndoS2 deglycosylated, DFO conjugated on lysines (0.6:1.0), natZr labelled
B2: natZr-DFO-AP-101 (antibody, V domains shown)
VH: B1 VH
VL: B1 VL
modifications: DFO chelator conjugated on lysines (DFO:antibody 1.1:1.0), natZr labelled
B3: AP-101 (non-modified alpha-miSOD1) (antibody, V domains shown)
VH: B1 VH
VL: B1 VL

Legend:
Test in all cases: ELISA
[1] = molecular target: T1, misfolded (denatured) human SOD1 (human, UniProt P00441)
[2] = molecular target: T1, misfolded (denatured) human SOD1; remark: listed apart in the source
[3] = molecular target: T1, misfolded (denatured) human SOD1; remark: listed apart in the source

T1 sequence (P00441 2-154): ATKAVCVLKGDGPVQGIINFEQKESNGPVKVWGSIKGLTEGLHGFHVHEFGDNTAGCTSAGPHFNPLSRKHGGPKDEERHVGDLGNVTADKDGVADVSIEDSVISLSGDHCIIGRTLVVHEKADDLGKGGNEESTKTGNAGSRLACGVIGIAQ

Binder	EC50 [1] [nM]	EC50 [2] [nM]	EC50 [3] [nM]
B1	2.4		
B2	0.3	0.5	
B3			0.2
